From patent publication US11407840B2, “Antibodies to M(H)DM2/4 and their use in diagnosing and treating cancer” (NomoCan Pharmaceuticals LLC, priority 2017, dated 2022)
One block for each molecule: values may come before it.

Key:
[1] = tested on: plasma membrane M(H)DM2/4; experiment: Plasma membrane M(H)DM2/4 after chemotherapeutic agents in vitro; format: cell-based; settings: data not shown
[2] = tested on: human, murine, rabbit protein; parameters: key: H—binds to human protein; M—binds to murine protein; R—binds to rabbit protein; settings: Table 10; cited from earlier work
[3] = tested on: human pancreatic cancer MIA PaCa-2 cells; experiment: Cell-ELISA, intact cells; format: binding
Method: (§1) Cell-ELISA Methodology: 8,000-10,000 cells/well of a 96-well microplate were grown overnight. The next day, unbound cells were washed off with sterile 1× PBS. The cells in each well were fixed with freshly prepared 4% buffered paraformaldehyde (pH 7.2) for 1 hour followed by 3 washes with 1× PBS. The wells were then blocked with 5% BSA in PBS (100 ? /well) for 2 hours at room temperature. Microplate wells were then washed 5 times with 300 ? of ice cold 1× PBS. MAbs NMC-103, NMC-204 or NMC-303 at 1 μg/mL in 1% BSA/PBS were then incubated with various cancer or normal untransformed cells for 2 hours at room temperature. Wells were then washed with 300 ? of ice-cold 1× PBS for 5 times and corresponding secondary antibody HRP-GaM F(ab′)2 diluted 1:2500 or 1:5000 in PBS with 1% BSA were added at 100 ? /well for 1 hour at room temperature followed by washing 5 times with 300 ? of ice-cold 1× PBS. TMB Substrate Solution (1-StepTM Ultra TMB-ELISA, ThermoFisher, Cat. No. 34028) was then added at 50 ? ? to each microplate well and incubated at room temperature for 30 minutes. The reaction was stopped by addition of 50 μL, of stop solution (ThermoFisher, Cat. No. SSO4) to each well and absorbance of each well was measured at OD450 nm. The absorbance value of each experimental well was corrected for the absorbance value obtained from wells treated with isotype-identical mAbs included in each experiment. The results are thus expressed as “relative binding”.

[4] = target: NMC-P3 peptide (SEQ ID NO:3), amino acids 475-491 of HDM2 (Homo sapiens, UniProt Q00987); experiment: Peptide-ELISA, NMC-P3 peptide; format: binding; settings: 5 μg/ml peptide dried on plate; OD 450 nm
Method: Peptide-ELISA Methodology: 5 μg/ml of NMC-P1, NMC-P2 or NMC-P3 peptide antigen was dried onto a 96-well ELISA plate overnight. Plates were then blocked with 5% BSA in 1× phosphate-buffered saline (PBS) (100 ? /well) for 2 hours at room temperature. Microplate wells were then washed 5 times with 300 ? of ice cold 1× PBS. Appropriate dilutions of monoclonal antibodies NMC-103, NMC-204 or NMC-303 in 1% bovine serum albumin (BSA) in PBS solution were then incubated with their corresponding peptides (NMC-P1, NMC-P2 or NMC-P3, respectively) at room temperature. After 2 hours, wells were washed 5 times with 300 ? ? ice-cold PBS/well and 100 ? secondary antibody (HRP-labeled Goat anti-Mouse F(ab′)2 H&L cross-adsorbed secondary antibody (HRP-GaM F(ab′)2), ThermoFisher, Cat. No. A24524) diluted 1:2500 to 1:5000 in PBS-1% BSA solution were added and the incubation continued at room temperature. After 1 hour, the wells were washed again 5 times with 200 ? of ice-cold PBS and 50 μiL of the TMB Substrate Solution (1-StepTM Ultra TMB-ELISA, ThermoFisher, Cat. No. 34028) were added to each well and color was allowed to develop for 30 minutes at room temperature. The reaction was stopped by addition of 50 μ ? ? of stop solution (ThermoFisher, Cat. No. SSO4) to each well and absorbance of each well was read immediately for optical density (OD) at 450 nm.

[5] = tested on: human breast cancer MCF-7 cells; experiment: Cell-ELISA, intact cells; format: binding; settings: mAb 1 μg/mL, FIGS. 3-5
Method: as §1

[6] = target: T1, recombinant full-length HDM2 protein (GST tagged) (Homo sapiens, UniProt Q00987); experiment: Western blot (immunoblot); format: binding; settings: 1 μg/well protein; band at approximately 83 kD; FIG. 2
T1 construct: reacted with the recombinant full-length HDM2 protein; purchased Abcam ab188727
Method: Western Blot: As for immunoblots, 1 μg/well of recombinant FIDM2 protein (GST tagged, Abeam, Cat. No. ab188727) was separated on 8-16% sodium dodecyl sulfate (SDS) polyacrylamide gel and proteins were then transferred to polyvinylidene difluoride (PVDF) membrane. The membrane was blocked with 5% milk followed by incubation with monoclonal antibody NMC-103, NMC-204 or NMC-303 at 1 μg/πι ? in 1% milk in PBS for 2 hours. The membrane was then washed×3 times (10 minutes each) and incubated for 1 hour with corresponding HRP-conjugated secondary antibody (Goat anti-Mouse IgG (H&L), F(ab′)2 Frag Cross-adsorbed HRP (HRP-GaM F(ab′)2), ThermoFisher, Cat. No. A24524) diluted 1:5000 in 1% BSA-PBS. The membrane was then washed×3 times and incubated with Pierce ECL Plus Western Blotting Substrate (ThermoFisher, Cat. No. #32132) for 10 min before developing on a LICOR Scanner.

[7] = tested on: normal human peripheral blood mononuclear cells (PBMCs); experiment: Cell-ELISA, intact normal cells; format: binding; settings: freshly isolated PBMCs; FIG. 6
Method: as §1

[8] = tested on: CT-26 (subcutaneous tumors); experiment: CT-26 syngeneic mouse model of colon cancer; format: in vivo, mouse (BALB/c); settings: day 24 post tumor inoculation; 10 mg/kg two times a week for 3 weeks; n=4; FIG. 32A
Method: Utilizing another syngeneic mouse model of colon cancer, CT-26 (Selby et al., 2016, PLoS One. 9; 11(9): e0161779), the anti-tumor efficacy of a chimeric version of monoclonal antibody NMC-303 was assessed. To create the chimeric version of monoclonal antibody NMC-303, isotype class-switching was performed on a mouse NMC-303 (having heavy variable regions of SEQ ID NO:40 and light chain variable regions of SEQ ID NO:41) to convert it from a mouse IgM to a chimeric IgG1. The mouse Heavy and Light chain variable regions (SEQ ID NO:40 and SEQ ID NO:41, respectively) were cloned into a human Ig gamma-1 chain and human Ig kappa chain as constant region. A total of eight (8) BALB/c mice were injected subcutaneously with CT-26 (800,000 cells/mouse). Mice were then divided into two groups (n=4) that received: A) control antibody (10 mg/kg) or B) the chimeric version of monoclonal antibody NMC-303 (10 mg/kg) two times a week for 3 weeks. […] Due to the human constant region of the chimeric version of the monoclonal antibody NMC-303, the anti-tumor efficacy of this antibody might be improved if tested in mouse models with human immune background. The above in vivo results further support the anti-tumor efficacy of antibodies raised against NMC-P3 immunogen that target the extracellularly accessible epitopes of the M(H)DM2/4 on cancer cells.

T1 sequence (Q00987 whole entry): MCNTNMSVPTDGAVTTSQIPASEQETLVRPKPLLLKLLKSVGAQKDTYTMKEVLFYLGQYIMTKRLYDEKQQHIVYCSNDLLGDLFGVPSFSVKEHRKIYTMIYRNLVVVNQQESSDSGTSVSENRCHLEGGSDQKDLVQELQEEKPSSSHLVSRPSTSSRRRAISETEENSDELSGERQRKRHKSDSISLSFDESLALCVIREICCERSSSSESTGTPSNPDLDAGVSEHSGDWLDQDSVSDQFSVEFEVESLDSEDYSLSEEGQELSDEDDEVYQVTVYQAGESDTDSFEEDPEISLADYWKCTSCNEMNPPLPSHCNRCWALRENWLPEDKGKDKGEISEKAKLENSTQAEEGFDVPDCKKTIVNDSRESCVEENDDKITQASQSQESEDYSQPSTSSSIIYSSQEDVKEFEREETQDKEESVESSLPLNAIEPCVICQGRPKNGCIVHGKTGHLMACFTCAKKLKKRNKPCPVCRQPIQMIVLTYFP

Molecule: CC(=O)O[C@H]1C(=O)[C@@]2(C)[C@H]([C@H](OC(=O)c3ccccc3)[C@]3(O)C[C@H](OC(=O)[C@H](O)[C@@H](NC(=O)c4ccccc4)c4ccccc4)C(C)=C1C3(C)C)[C@]1(OC(C)=O)CO[C@@H]1C[C@@H]2O [Paclitaxel]
plasma membrane M(H)DM2/4 of treated cells [1]: increase

Molecule: Nc1ccn([C@@H]2O[C@H](CO)[C@@H](O)C2(F)F)c(=O)n1 [Gemcitabine]
plasma membrane M(H)DM2/4 of treated cells [1]: increase

Molecule: Cytochrome C [reference compound]
Species Reactivity [2]: H
binding to intact, EDTA-released MiaPaCa-2 cells, cell-ELISA ([3]; EDTA 10 mmols, pH 7.2, 5 min, 37° C., FIG. 10): only minimal binding

binding to NMC-P3 peptide (peptide-ELISA) [4]: bound
reactivity with recombinant full-length HDM2-GST protein in immunoblot [6]: reacted
B1: NMC-303: mouse monoclonal antibody, IgM isotype, binds NMC-P3 (SEQ ID NO:3); VH SEQ ID NO:40, VL SEQ ID NO:41 (antibody, V domains shown)
VH: QVQLQQPGAELVKPGASVKLSCKASGYTFTSYYMYWVKQRPGQGLEWIGGINPRNGGTNFNEKFKNKATLTADKSSTTAYMQLSSLTSEDSAVYYCTRSGYYAMDYWGQGTSVTVSS
VL: DIQMTQTTSSLSASLGDRVTISCRASQDISNFLNWYQQKPDGTVKLLIYYTSRLHSGVPSRFSGSGSGTDYSLTISNLEQEDIATYFCQQGNTLPRTFGGGTKLEIK
modifications: mAb NMC-303 Heavy Chain Variable Region; mAb NMC-303 Light Chain Variable Region
binding to intact MIA PaCa-2 cells when competed with NMC-P3 peptide ([3]; FIG. 8C): competed
relative binding (reactivity) to intact cells, cell-ELISA ([3]; MIA PaCa-2, mAb 1 μg/mL, FIGS. 3-5): reactivity
relative binding (reactivity) to intact cells, cell-ELISA [5]: reactivity
binding to intact normal human PBMCs, cell-ELISA [7]: virtually no binding

B2: chimeric version of monoclonal antibody NMC-303: chimeric IgG1: mouse NMC-303 variable regions cloned into human Ig gamma-1 chain and human Ig kappa chain constant regions (antibody, V domains shown)
VH: QVQLQQPGAELVKPGASVKLSCKASGYTFTSYYMYWVKQRPGQGLEWIGGINPRNGGTNFNEKFKNKATLTADKSSTTAYMQLSSLTSEDSAVYYCTRSGYYAMDYWGQGTSVTVSS
VL: DIQMTQTTSSLSASLGDRVTISCRASQDISNFLNWYQQKPDGTVKLLIYYTSRLHSGVPSRFSGSGSGTDYSLTISNLEQEDIATYFCQQGNTLPRTFGGGTKLEIK
modifications: human IgG1 and kappa constant regions lack entries; mAb NMC-303 Heavy Chain Variable Region; mAb NMC-303 Light Chain Variable Region
notes: chimeric IgG1: mouse NMC-303 variable regions cloned into human Ig gamma-1 chain and human Ig kappa chain constant regions
average tumor size [8]: 726 mm^3
